Laboratory results published in patent US20220033501A1 (SHANGHAI PHARMAEXPLORER, published 2022).
Substitutions are numbered along the chain they refer to.

B1: 34B6D8 fully human TIM-3 antibody (human IgG4, kappa) (antibody, V domains shown)
VH: EVQLVESGGGLVQPGGSLRLSCAASGFTFSTYWMTWVRQAPGKRLEWVANIKQGGGDKYYVDSVKGRFTISTDNAKNSLYLQMNSLRAEDTAVYYCARGSNWFDPWGQGTLVTVSS
VL: EIVMTQSPATLSMSPGERATLSCRASQSVYDNLAWYQQKPGQAPRLLIYGASTRATGIPARFSGSGSGTEFTLTISSLQSEDFALYYCQQYTHWPITFGQGTRLEIK
B2: 39E5H1 fully human TIM-3 antibody (human IgG4, kappa) (antibody, V domains shown)
VH: B1 VH with T31S, T35S, R44G, Q53R, G56S, D57E, K58R, T72G, L79V
VL: B1 VL with I2T, T10I, M13V, D31S, P40L, G50D, L85V, T92N, H93N

Assays:
[1] = target: T1, monkey TIM-3 extracellular domain protein with hFc tag (cTIM-3-hFc) (monkey); assay: ELISA, coated monkey TIM-3 ECD protein, 66.667 nM antibody
T1 construct: not shown: human IgG Fc fragment (hFc) of the pCpC vector
T1 chain: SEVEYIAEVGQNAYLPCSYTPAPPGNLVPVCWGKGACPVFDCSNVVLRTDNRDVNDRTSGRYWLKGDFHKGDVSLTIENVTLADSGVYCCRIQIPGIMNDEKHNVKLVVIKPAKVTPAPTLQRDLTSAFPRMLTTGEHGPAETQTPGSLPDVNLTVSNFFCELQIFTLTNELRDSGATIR

[2] = target: T2, murine TIM-3 extracellular domain protein with hFc tag (mTIM-3-hFc) (mouse, UniProt Q8VIM0 29-191); assay: ELISA, coated mouse TIM-3 ECD protein, 0.0067 nM antibody
T2 construct: also called mouse TIM-3 extracellular domain protein; not shown: human IgG Fc fragment (hFc) of the pCpC vector
T2 chain: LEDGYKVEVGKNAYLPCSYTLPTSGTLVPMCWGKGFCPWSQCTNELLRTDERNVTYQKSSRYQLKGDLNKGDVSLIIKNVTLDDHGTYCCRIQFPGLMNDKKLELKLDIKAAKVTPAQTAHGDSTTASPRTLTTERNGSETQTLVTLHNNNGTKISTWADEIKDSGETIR

[3] = target: T3, monkey TIM-3 on CHOK1 stable cell line (CHOK1-cTIM-3) (monkey); assay: FACS, CHOK1-cTIM-3 cells, 8 nM antibody
T3 chain: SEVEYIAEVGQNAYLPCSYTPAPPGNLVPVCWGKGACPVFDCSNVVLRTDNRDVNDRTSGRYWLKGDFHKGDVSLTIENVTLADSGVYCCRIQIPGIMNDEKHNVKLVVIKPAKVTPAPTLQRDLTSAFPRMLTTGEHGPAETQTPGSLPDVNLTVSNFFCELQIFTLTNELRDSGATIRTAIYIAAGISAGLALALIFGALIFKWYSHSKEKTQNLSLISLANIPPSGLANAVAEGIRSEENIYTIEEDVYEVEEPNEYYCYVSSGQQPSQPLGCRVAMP

[4] = target: T1, monkey TIM-3 extracellular domain …; assay: ELISA, coated monkey TIM-3 ECD protein, 6.6667 nM antibody
[5] = target: T4, human TIM-3 on CHOK1 stable cell line (CHOK1-hTIM-3) (human, UniProt Q8TDQ0 22-301); assay: FACS, CHOK1-hTIM-3 cells, 0 nM antibody
T4 sequence: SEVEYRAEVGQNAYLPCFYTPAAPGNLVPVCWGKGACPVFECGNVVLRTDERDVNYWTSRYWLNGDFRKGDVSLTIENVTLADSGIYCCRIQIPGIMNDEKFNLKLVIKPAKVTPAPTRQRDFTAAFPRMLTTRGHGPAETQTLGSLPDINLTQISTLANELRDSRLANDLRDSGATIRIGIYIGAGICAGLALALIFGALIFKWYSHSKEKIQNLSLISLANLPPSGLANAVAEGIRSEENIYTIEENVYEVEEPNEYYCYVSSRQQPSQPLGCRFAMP

[6] = target: T5, human TIM-3 extracellular domain protein with hFc tag (hTIM-3-hFc) (human, UniProt Q8TDQ0 22-200); assay: ELISA, coated human TIM-3 ECD protein, 0.0667 nM antibody
T5 construct: not shown: human IgG Fc fragment (hFc) of the pCpC vector
T5 sequence: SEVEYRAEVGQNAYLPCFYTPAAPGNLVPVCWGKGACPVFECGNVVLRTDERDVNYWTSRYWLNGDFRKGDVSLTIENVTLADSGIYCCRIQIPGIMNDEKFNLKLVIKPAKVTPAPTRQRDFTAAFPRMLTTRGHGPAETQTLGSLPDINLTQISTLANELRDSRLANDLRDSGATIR

| Binder | OD450 [1] | OD450 [2] | Mean fluorescence intensity [3] | OD450 [4] | Mean fluorescence intensity [5] | OD450 [6] |
| --- | --- | --- | --- | --- | --- | --- |
| B1 | 3.39 | 0.24 | 340 | 3.39 | 2.9 | 1.58 |
| B2 | 3.38 | 0.23 | 349 | 3.35 | 2.8 | 1.33 |
